Laboratory results as given in the RNAGym collection of RNA variant scans (doi:10.7554/elife.80360).

B1: Hairpin Ribozyme (parent)
chain: GUCCUCUUUCACGUGCGCGUGAAAGAGAGAAGUGAACCAGAGAAACACACGUUGUGGUAUAUUACCUGGUA

Variants of: B1
Test: self-cleavage, relative activity (ratio to wild type); higher = more cleavage; co-transcriptional

Variant | self-cleavage
U7G | 0.875
U8C G42U | 0.252
U8A G27C | 0.186
U8G A30C | 0.141
U8G A30G | 0.119
U8C G21U | 0.142
U7C G42C | 0.245
U7C G42A | 0.287
U7C G42U | 0.205
U8A U33G | 0.0531
U8A U33A | 0.0975
U8C U14G | 0.501
U8G G13U | 0.438
U7G A30G | 0.081
U7C G51A | 0.69
U7G A45U | 0.2
U8G A22U | 0.582
U8A G15A | 0.826
U8G G21U | 0.523
U7G C66U | 0.355
U7G G25A | 0.316
U9A A39U | 0.335
U8A U52C | 0.647
U8C G25C | 0.148

Variant | self-cleavage
U8C G25A | 0.197
U9A A49U | 0.179
U7G U20A | 0.294
U8A G68A | 0.179
U8G U55G | 0.223
U7G G51U | 0.844
U8C C66U | 0.273
U8C C66A | 0.19
U7C U63G | 0.161
U7C U63A | 0.19
U8G G25C | 0.0293
U7G G68U | 0.269
U8A C16A | 0.876
U8A C16G | 0.632
U8A A35C | 0.911
U7C G68C | 0.302
U7G A23U | 0.883
U9A G21C | 0.465
U8G A71C | 1.34
U8G A45C | 0.111
U7G A71U | 0.746
U8A G57U | 0.267
U8A G57A | 0.196
U8A G57C | 0.0778

Variant | self-cleavage
U7C C65G | 0.357
U9A A35U | 0.578
U9A A35G | 0.744
U8A U60C | 0.89
U8G A26G | 0.673
U8C G17A | 0.632
U8G U52G | 0.621
U8G U52A | 0.752
U8C U58C | 0.911
U8C U58A | 0.552
U7G A47C | 0.234
U7G A47U | 0.0788
U9A A47U | 0.135
U9A A47G | 0.0847
U8G U9A | 0.734
U8C A24G | 0.502
U8C A24C | 0.196
U8C C18G | 0.528
U9A A26C | 0.364
U9A A26U | 0.424
U7G G42U | 0.299
U8C G51A | 0.855
U8C G51C | 0.701
U8C G51U | 0.901

Variant | self-cleavage
U7G U52C | 0.961
U7G U52A | 0.734
U8G A36U | 0.557
U8G G29U | 0.112
U8G G29A | 0.154
U8G C48G | 0.138
U8G C48U | 0.0825
U8G C48A | 0.146
U9A C65U | 0.335
U9A C65G | 0.203
U7C U67G | 0.171
U8C C65G | 0.143
U8G G69U | 0.29
U8G A43U | 0.228
U8G A43C | 0.152
U8C G15C | 0.565
U8C G15U | 0.932
U8A A43U | 0.106
U7G C48U | 0.114
U9A A59C | 0.0956
U9A A59G | 0.154
U7G A44U | 0.139
U8C A30C | 0.201
U7C U9G | 0.35

Variant | self-cleavage
U7C U9C | 0.673
U7C G40A | 0.334
U7G C37G | 0.239
U7G C37U | 0.531
U7G C50G | 0.143
U8A U63C | 0.218
U7C G15A | 0.753
U8G G56U | 0.169
U8A G51A | 0.749
U8A G51U | 0.92
U7C G69A | 0.289
U9A G42U | 0.253
U8A G40U | 0.109
U7G C10A | 0.765
U7G C10G | 0.643
U7G C10U | 0.64
U8C A59U | 0.116
U7G U63G | 0.145
U7G U63A | 0.179
U8A A71G | 0.699
U7C C46G | 0.124
U7G G54U | 0.619
U7G G54A | 0.642
U8A A59U | 0.165

Variant | self-cleavage
U9A A41G | 0.675
U8G G34U | 1.28
U8A U9G | 0.791
U8A U9A | 0.793
U8G G57A | 0.102
U8G G57C | 0.192
U7C G21A | 0.618
U8C | 0.739
U8A | 0.745
U8G | 0.764
U7C G27A | 0.386
U7C G27C | 0.172
U9A C66U | 0.266
U8C A36G | 0.928
U8G C18G | 0.518
U8G U63G | 0.172
U8G U63C | 0.155
U8C G40A | 0.274
U8G C12A | 0.395
U8G C12U | 0.447
U7G U8G | 0.768
U8G G27C | 0.139
U8G G27A | 0.43
U7C G17A | 0.863

Variant | self-cleavage
U8C G32A | 0.198
U8C C37G | 0.214
U8G A39G | 0.263
U8C U9G | 0.374
U7G U9C | 0.66
U9A C50A | 0.264
U9A C50G | 0.214
U8G U33G | 0.111
U8C G29C | 0.0996
U8C C50U | 0.172
U7G G32U | 0.135
U7G G32A | 0.173
U8A A61C | 0.165
U7G G29C | 0.134
U7G G29A | 0.22
U9A C48A | 0.144
U7G A31C | 0.11
U9A C38U | 0.388
U7G G13C | 0.618
U8C A43G | 0.16
U8C A43U | 0.241
U8C C16U | 0.734
U8C C16A | 0.84
U8C C16G | 0.651

Variant | self-cleavage
U9A C18U | 0.775
U9A A44G | 0.0648
U8C A28G | 1.07
U8A A22G | 0.644
U9A A28C | 0.266
U9A A28G | 0.748
U7C U33A | 0.068
U8G C38G | 0.268
U8C A41C | 0.72
U8C A41G | 0.458
U7G C38A | 0.129
U7G C38G | 0.0992
U8C G54C | 0.346
U8C A26U | 0.336
U8A G42U | 0.261
U8A G42C | 0.147
U8G C66A | 0.169
U8G C66G | 0.162
U7G G17U | 1.04
U7G G17C | 0.612
U7G G17A | 0.849
U8G G68A | 0.119
U8G G68U | 0.268
U9A A71G | 0.707

Variant | self-cleavage
U8A C12A | 0.606
U9A A24U | 0.466
U9A A24C | 0.514
U7C U70C | 1.04
U7C U70A | 1.02
U9A A23U | 0.472
U7G G57C | 0.206
U8A G17A | 0.742
U8C U70G | 0.35
U8G A11G | 0.704
U7G C16A | 0.929
U8G G42C | 0.284
U8G G42U | 0.254
U8A G54A | 0.396
U7G C46U | 0.129
U7G C12G | 0.658
U8G G51U | 0.886
U8A G19U | 0.661
U7G A49C | 0.141
U7G A49U | 0.15
U8C A39U | 0.25
U8C A39G | 0.201
U8G A23G | 0.759
U8G A61C | 0.189

Variant | self-cleavage
U8G A61U | 0.184
U8A G56A | 0.158
U8A G29C | 0.104
U8A G29U | 0.0651
U8G A28U | 0.514
U8G A28C | 0.433
U7C U58G | 0.815
U8C G34U | 1.32
U7G U60G | 0.484
U9A G13C | 0.399
U7G A28C | 0.329
U7G A28G | 1.06
U8G U60C | 0.845
U8G U60A | 0.647
U8C A31U | 0.14
U8C A31C | 0.0859
U8C A31G | 0.241
U7G U58A | 0.655
U7G U58G | 0.645
U7G A43C | 0.138
U7C G25C | 0.251
U7G A24G | 0.697
U7G G15A | 0.736
U7C U52A | 0.82

Variant | self-cleavage
U7G A61U | 0.203
U8G A47C | 0.266
U8A U53C | 0.778
U8G U14A | 0.554
U8G U14G | 0.542
U8G U14C | 0.814
U7C U62G | 0.179
U8C A35G | 0.385
U7C U8G | 0.484
U8C C46U | 0.172
U8A C38G | 0.102
U8A C38A | 0.15
U8G C37U | 0.487
U8G C37G | 0.191
U7G C65U | 0.369
U8A A41G | 0.615
U8C G19C | 0.232
U8C C48A | 0.136
U7C U60G | 0.621
U7C U60A | 0.737
U8A A64G | 0.503
U7G A22C | 0.515
U7G A22G | 0.908
U8A A24G | 0.511

Variant | self-cleavage
U7G G19U | 0.414
U7G G34A | 0.984
U7G G34C | 1.39
U8C A61G | 0.0942
U9A G32A | 0.179
U8C A64C | 0.043
U8G A64G | 0.476
U8G G32C | 0.12
U8G G32U | 0.0934
U8A C46U | 0.0775
U8A C46A | 0.133
U8A U62A | 0.105
U8C G57U | 0.368
U7C C48U | 0.279
U7G A64G | 0.461
U8A A30C | 0.172
U8C A11C | 0.289
U8G U62G | 0.163
U8C U33G | 0.36
U8C U33C | 0.214
U8C U63G | 0.188
U7G A26U | 0.384
U8G A35C | 0.715
U9A A45G | 0.172

Variant | self-cleavage
U8A A39U | 0.334
U8A A39G | 0.279
U8C G27A | 0.443
U8C G27C | 0.152
U9A G25A | 0.191
U9A G25C | 0.232
U8A A47C | 0.295
U8A A47U | 0.16
U8G U58C | 0.725
U8A G34U | 1.05
U8A G34C | 0.902
U8C U55G | 0.101
U9A G51U | 0.675
U8A G32C | 0.111
U8A G25C | 0.155
U7C G32U | 0.261
U8A U58C | 0.913
U8A U58G | 0.515
U8A U58A | 0.561
U8G A24C | 0.592
U8G A24U | 0.595
U9A G19A | 0.588
U8G U70G | 0.608
U8G U70C | 0.675

Variant | self-cleavage
U8C U20G | 0.439
U8C U20A | 0.604
U8G G17U | 0.651
U9A A43C | 0.142
U9A A43G | 0.179
U8C A22G | 0.515
U8C A22C | 0.209
U9A A22C | 0.773
U9A A22G | 0.605
U8C C10U | 0.564
U8A C18A | 0.872
U8C G56C | 0.12
U8A A11C | 0.393
U9A C46U | 0.134
U9A C46G | 0.135
U7C U14C | 0.925
U7C U14G | 0.723
U9A C37U | 0.317
U9A C37A | 0.193
U9A C37G | 0.189
U8A G21U | 0.691
U8C A47C | 0.131
